# Results taken from patent publication US20070224174A1.
# Target: murine Axl receptor tyrosine kinase on precursor natural killer (pNK) cells (mouse) (UniProt Q00993)
# Experiment: cell-based or functional assay
# Chain of UniProt Q00993 (Q00993 19-888): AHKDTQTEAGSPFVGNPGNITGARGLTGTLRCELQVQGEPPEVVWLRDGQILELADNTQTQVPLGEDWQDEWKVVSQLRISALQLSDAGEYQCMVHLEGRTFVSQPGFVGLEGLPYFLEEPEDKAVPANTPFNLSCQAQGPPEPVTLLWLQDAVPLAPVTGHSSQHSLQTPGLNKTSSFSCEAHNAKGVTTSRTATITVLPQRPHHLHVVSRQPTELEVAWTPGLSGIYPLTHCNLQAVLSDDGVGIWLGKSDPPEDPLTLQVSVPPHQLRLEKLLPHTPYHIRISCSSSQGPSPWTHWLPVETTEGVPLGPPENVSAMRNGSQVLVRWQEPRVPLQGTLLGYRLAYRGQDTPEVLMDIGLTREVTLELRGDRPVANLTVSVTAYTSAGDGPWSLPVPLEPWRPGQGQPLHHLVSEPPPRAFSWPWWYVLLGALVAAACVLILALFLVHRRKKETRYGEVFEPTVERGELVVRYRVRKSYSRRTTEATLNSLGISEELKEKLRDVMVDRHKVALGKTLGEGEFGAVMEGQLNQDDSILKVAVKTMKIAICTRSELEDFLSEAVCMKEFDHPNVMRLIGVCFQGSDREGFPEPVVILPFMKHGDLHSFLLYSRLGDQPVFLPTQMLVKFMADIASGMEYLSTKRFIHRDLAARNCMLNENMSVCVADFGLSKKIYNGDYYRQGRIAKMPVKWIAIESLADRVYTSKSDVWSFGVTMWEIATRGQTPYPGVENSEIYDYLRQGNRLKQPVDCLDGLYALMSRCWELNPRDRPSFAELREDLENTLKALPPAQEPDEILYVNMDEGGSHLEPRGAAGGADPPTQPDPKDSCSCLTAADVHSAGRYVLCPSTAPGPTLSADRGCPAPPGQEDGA
substance,measurement,value
murine Gas6 protein secreted from the murine Gas6 transfectant (NIH3T3 transfected with pcDNA3.1-Gas6) (from UniProt Q61592 28-674) (ligand),"degree of differentiation of pNK cells into mNK cells (FACS), co-culture with murine Gas6 transfectant against control groups",47%
